Measurements from the supplement of paper PMC7877785.
± gives the uncertainty stated by the source.

Assay: self-splicing fitness, log relative to wild type (ln ratio); higher = more splicing; Tetrahymena group I intron in knt gene, E. coli kanamycin selection, DiMSum; sequences stand for … in CUCUCU…GGAGGGAAAAGUUAUCAGGCAUGCACCUGGUAGCUAGUCUUUAAACCAAUAGAUUGCAUCGGUUUAAAAGGCAAGACCGUCAAAUUGCGGGAAAGGGGUCAACAGCCGUUCAGUACCAAGUCUCAGGGGAAACUUUGAGAUGGCCUUGCAAAGGGUAUGGUAAUAAGCUGACGGACAUGGUCCUAACCACGCAGCCAAGUCCUAAGUCAACAGAUCUUCUGUUGAUAUGGAUGCAGUUCACAGACUAAAUGUCGGUCGGGGAAGAUGUAUUCUUCUCAUAAGAUAUAGUCGGACCUCUCCUUAAUGGGAGCUAGCGGAUGAAGUGAUGCAACACUGGAGCCGCUGGGAACUAAUUUGUAUGCGAAAGUAUAUUGAUUAGUUUUGGAGUACUCGUGGUCG
Outline: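 A randomised library covering all eight P1ex-region intron nucleotides was built with the intron in the knt kanamycin-resistance gene on pET-22b(+) and held in E. coli BL21(DE3). Cells were grown overnight at 37°C or 30°C on LB agar, with or without 25 μg/mL kanamycin, plus 100 μg/mL carbenicillin, 50 μM IPTG and 0.2% rhamnose, and pooled colonies were amplicon-sequenced on an Illumina HiSeq 2500. DiMSum fitness is the error-weighted combination of wild-type-normalised replicate fold changes, kanamycin versus none.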

Sequence	self-splicing fitness (ln) (30 °C)	self-splicing fitness (ln) (37 °C)
GAAAAGCAAUAUUACGUCAU	-1.82 ± 0.088	-0.42 ± 0.097
UAAGAGCAAUAUUACGGUGU	-2.19 ± 0.14	-3.27 ± 0.47
UUACAGCAAUAUUACGCUCG	0.107 ± 0.086	0.283 ± 0.11
UGAUAGCAAUAUUACGUAUA	-1.17 ± 0.18	-1.53 ± 0.19
UUAUAGCAAUAUUACGAGAU	-3.27 ± 0.31	-3.38 ± 0.39
AUGGAGCAAUAUUACGCUCU	-3.56 ± 0.49	-1.45 ± 0.41
UGCCAGCAAUAUUACGAAAC		-2.42 ± 0.23
GAUAAGCAAUAUUACGAGCG	-1.25 ± 0.1	-0.755 ± 0.11
UACAAGCAAUAUUACGGAUA	-1.38 ± 0.086	-0.839 ± 0.092
UACUAGCAAUAUUACGGCGG	-0.694 ± 0.11	0.0905 ± 0.13
GCCAAGCAAUAUUACGGUAC	-2.01 ± 0.13	-0.941 ± 0.13
AGGGAGCAAUAUUACGCGCG	-1.62 ± 0.35	-1.11 ± 0.37
UAUCAGCAAUAUUACGGGUG	-0.736 ± 0.044	-0.102 ± 0.064
GUAUAGCAAUAUUACGUGGU	-3.14 ± 0.23	-1.29 ± 0.15
GGCAAGCAAUAUUACGGGUG	-0.914 ± 0.055	-0.195 ± 0.066
UGGGAGCAAUAUUACGCCGG	-2.45 ± 0.23	-2.19 ± 0.31
AAAUAGCAAUAUUACGAAGG	-2.61 ± 0.21	-1.45 ± 0.27
UUCAAGCAAUAUUACGAAUA	-2.07 ± 0.18	-0.837 ± 0.12
AAAAAGCAAUAUUACGUUUC	-2.04 ± 0.13	-3.26 ± 0.28
UGCUAGCAAUAUUACGUAAC	-3.31 ± 0.28	-1.84 ± 0.29
GUUGAGCAAUAUUACGGCGC	-0.744 ± 0.18	-0.21 ± 0.22
CAUCAGCAAUAUUACGAUUU	-0.551 ± 0.071	0.205 ± 0.1
AAGUAGCAAUAUUACGCCCA	-1.95 ± 0.35	0.232 ± 0.38
CCUCAGCAAUAUUACGCGGU	-3.37 ± 0.19	-2.98 ± 0.33
AGGAAGCAAUAUUACGUUCA	-0.532 ± 0.13	-1.05 ± 0.21

Sequence	self-splicing fitness (ln) (30 °C)	self-splicing fitness (ln) (37 °C)
AAUUAGCAAUAUUACGGAAC	-2.77 ± 0.13	-2.18 ± 0.2
UUGCAGCAAUAUUACGCAAU	-3.95 ± 0.42	-1.86 ± 0.14
UUUCAGCAAUAUUACGAUUC		-1.37 ± 0.41
GUUUAGCAAUAUUACGAGCG	-1.6 ± 0.12	-0.465 ± 0.12
GACAAGCAAUAUUACGAAUU	-1.56 ± 0.063	-1.47 ± 0.099
CGGGAGCAAUAUUACGAUGG	-2.44 ± 0.2	-0.953 ± 0.24
CUUGAGCAAUAUUACGCAUC	-3.14 ± 0.4	-2.75 ± 0.44
AUGCAGCAAUAUUACGCGAU	-3.67 ± 0.3	-1.92 ± 0.25
UUGGAGCAAUAUUACGAUAU		-2.49 ± 0.32
GAGAAGCAAUAUUACGAAUU	-2.27 ± 0.14	-1.13 ± 0.15
CAGCAGCAAUAUUACGCGCG	-1.63 ± 0.099	-1.3 ± 0.14
UGCGAGCAAUAUUACGGAUG	-3.65 ± 0.16	-2.02 ± 0.14
UAUCAGCAAUAUUACGAUCC	-1.32 ± 0.11	0.203 ± 0.13
ACCAAGCAAUAUUACGACCU	-0.493 ± 0.074	-0.169 ± 0.087
CUGGAGCAAUAUUACGAUAU	-2.36 ± 0.35	-2.54 ± 0.41
GCACAGCAAUAUUACGAUUC	-0.739 ± 0.11	1.44 ± 0.15
CCGGAGCAAUAUUACGAAUA		-2.16 ± 0.4
CAGUAGCAAUAUUACGCUGC		-1.92 ± 0.43
AACAAGCAAUAUUACGACGC	-0.761 ± 0.066	-0.386 ± 0.076
AUAUAGCAAUAUUACGUUUU	-2.98 ± 0.22	-1.82 ± 0.22
UAGCAGCAAUAUUACGAGAU	-3.24 ± 0.2	-3.18 ± 0.28
GAAAAGCAAUAUUACGCUCG	-0.762 ± 0.11	-0.303 ± 0.15
AGUUAGCAAUAUUACGCAUG	-1.91 ± 0.078	-1.15 ± 0.1
GUAAAGCAAUAUUACGUAGG	-2.5 ± 0.11	-1.35 ± 0.15
GACCAGCAAUAUUACGCUCG	-0.964 ± 0.13	-0.766 ± 0.12

Sequence	self-splicing fitness (ln) (30 °C)	self-splicing fitness (ln) (37 °C)
UUACAGCAAUAUUACGAAAA	-2.35 ± 0.17	-0.806 ± 0.14
CUACAGCAAUAUUACGCCGU	-3.2 ± 0.19	-2.06 ± 0.29
UAGCAGCAAUAUUACGCGUU	-2.72 ± 0.1	-1.24 ± 0.11
UUCGAGCAAUAUUACGCUCC	-3.27 ± 0.41	
ACGUAGCAAUAUUACGGACC	-1.21 ± 0.16	-0.314 ± 0.2
AAAUAGCAAUAUUACGACCU	-0.0682 ± 0.092	0.265 ± 0.13
GCUUAGCAAUAUUACGGGCG	-1.44 ± 0.082	-0.621 ± 0.098
ACGAAGCAAUAUUACGCGGG	-1.62 ± 0.086	-0.782 ± 0.1
GUGAAGCAAUAUUACGGUAG	-1.79 ± 0.087	-0.687 ± 0.1
GCGUAGCAAUAUUACGGUGA	-1.73 ± 0.12	-0.187 ± 0.12
UCAAAGCAAUAUUACGAUGU	-1.09 ± 0.074	-0.341 ± 0.081
GUCCAGCAAUAUUACGGCAU	-0.147 ± 0.085	-0.171 ± 0.093
ACUCAGCAAUAUUACGCCCC	-1.48 ± 0.12	0.148 ± 0.18
ACAAAGCAAUAUUACGAAGG	-2.52 ± 0.087	-1.75 ± 0.12
GCAGAGCAAUAUUACGGCUG	-2.42 ± 0.25	
ACGUAGCAAUAUUACGACUU	-0.145 ± 0.099	0.593 ± 0.13
CGCCAGCAAUAUUACGCAGA	-3.57 ± 0.47	-2.53 ± 0.24
AUUGAGCAAUAUUACGACUC	-2.94 ± 0.29	-1.59 ± 0.27
UCCCAGCAAUAUUACGUGGC	-3.54 ± 0.15	-2.92 ± 0.23
UUGCAGCAAUAUUACGCGGG	-4.61 ± 0.39	-2.03 ± 0.21
GCUAAGCAAUAUUACGCGUC	-0.276 ± 0.14	-2.47 ± 0.19
AGAAAGCAAUAUUACGGACU	-0.691 ± 0.079	0.112 ± 0.089
UUUCAGCAAUAUUACGCCGG	-0.905 ± 0.17	-1.68 ± 0.25
UCGCAGCAAUAUUACGACUA	0.0221 ± 0.14	-0.0509 ± 0.14
CGCCAGCAAUAUUACGGCGA	-3.29 ± 0.23	-1.84 ± 0.18

Sequence	self-splicing fitness (ln) (30 °C)	self-splicing fitness (ln) (37 °C)
CUAGAGCAAUAUUACGACGA	-3.35 ± 0.13	-1.36 ± 0.13
CAUUAGCAAUAUUACGGCGA	-2.09 ± 0.3	-3.32 ± 0.47
GAUGAGCAAUAUUACGACAU	-1.797 ± 0.016	-1.02 ± 0.034
GCGGAGCAAUAUUACGGUCC	-2.54 ± 0.39	
UACGAGCAAUAUUACGGCCU	-3.35 ± 0.18	-3.77 ± 0.46
GGUAAGCAAUAUUACGACCG	-1.05 ± 0.16	0.0485 ± 0.22
UAGAAGCAAUAUUACGUUGC	-4.3 ± 0.27	-2.82 ± 0.24
CCAAAGCAAUAUUACGGGUU	-2.96 ± 0.15	-2.5 ± 0.16
CACCAGCAAUAUUACGAGAU	-3.87 ± 0.17	-2.42 ± 0.16
UUCUAGCAAUAUUACGUUGU	-3.15 ± 0.16	-2.75 ± 0.18
CCUCAGCAAUAUUACGAUUC	-3.88 ± 0.43	-2.44 ± 0.49
CUUAAGCAAUAUUACGCCUU		-2.63 ± 0.39
AAUGAGCAAUAUUACGUCAA	-2.4 ± 0.21	-2.59 ± 0.46
GAGCAGCAAUAUUACGAGCU	-2.58 ± 0.12	-1.88 ± 0.18
CACGAGCAAUAUUACGUGAG	-4.08 ± 0.19	-2.38 ± 0.19
GUCCAGCAAUAUUACGCCCC	-1.09 ± 0.18	-0.607 ± 0.18
UGAAAGCAAUAUUACGAAAU	-3.67 ± 0.2	-1.95 ± 0.18
AUCUAGCAAUAUUACGACUU	-0.1 ± 0.074	0.24 ± 0.092
UCUCAGCAAUAUUACGAACG	-1.88 ± 0.12	-0.666 ± 0.14
ACUAAGCAAUAUUACGGUAC	-2.7 ± 0.27	-1.89 ± 0.19
GUCCAGCAAUAUUACGACCA	-0.7 ± 0.21	-0.517 ± 0.17
CGGUAGCAAUAUUACGGGCA	-1.75 ± 0.24	-0.528 ± 0.2
UCAUAGCAAUAUUACGCGCG	-0.405 ± 0.3	-0.412 ± 0.21
